Results on one molecule are retold here after patent US20210277140A1 (University of California, published 2021).

Assay [1] concerns the target T1, SNAP-Syk tSH2 (mouse, UniProt P48025 1-262). In words: liposome-based fluorescence quenching assay: SNAP-505-labelled Syk tSH2 reporter, rhodamine-PE liposomes carrying His10-receptor tail (0 to 500 nM) phosphorylated by His10-Lck Y505F after ATP; Kd ± SE from a one-site specific binding fit. The method, then:
(§1) Experiments were carried out as previously described (Alvey C M et al., Current Biology 27:2065-2077, 2017). Briefly, proteins were purified using a bacterial expression system. All protein components (1 mg/ml BSA, 100 nM tSH2-Syk SNAP-505, 0 to 500 nM His10-CD3ζ or His10-FcRγ intracellular chain, and 7.2 nM His10-Lck Y505F) were mixed into kinase buffer (50 mM HEPES-NaOH pH 6.8, 150 mM NaCl, 10 mM MgCl₂, and 1 mM TCEP). Liposomes prepared at the following molar ratios: 74.5% POPC (Avanti, Catalog #850457C), 10% DOGS-NTA (Nickel) (Avanti, Catalog #790404C, 0.5% Rhodamine PE (Avanti, Catalog #810150C), and 15% DOPS (Avanti, Catalog #840035C) were added and the mixture was incubated for 40-60 minutes at room temperature, during which the SNAP-505 fluorescence was monitored at 8 s intervals with 504 nm excitation and 540 nm emission. 1 mM ATP was then injected to trigger Lck mediated phosphorylation of CD3ζ or FcRγ. Injection was followed by 5 seconds of automatic shaking of the plate, and the fluorescence was further monitored at 8 s intervals for at least 1 hr. Data were normalized by setting the average fluorescence value of the last 10 data points before ATP addition as 100% and background fluorescence as 0%. […]

Assay [2] concerns the target T1, SNAP-Syk tSH2. In words: liposome-based fluorescence quenching (FRET) assay; His10-FcRγ on NiNTA liposomes phosphorylated by Lck, 100 nM SNAP-505 Syk tSH2, receptor titrated 0-500 nM; apparent Kd, one site specific binding fit. How it is done:
as §1

No end group written: not given here.

B1: His10-FcRγ (other, human)
chain: HHHHHHHHHHRLKIQVRKAAITSYEKSDGVYTGLSTRNQETYETLKHEKPP
modifications: not fully specified
notes: range 45-85; titrated 0 to 500 nM; also called His10-FcRγ intracellular chain; His10-FcRγ-chain
With B1, the Kd is 31.2 nM with SNAP-Syk tSH2 [1] and approximately 30 nM in the assay with SNAP-Syk tSH2 [2].
